Like-named read-outs stand apart in the source and are kept apart here.
Columns and labels:
Test in all cases: ELISA, plate coated with CNTN4-10xHis, anti-human Fc-HRP
human CNTN4-10xHis [1] = target: T1, human CNTN4-10xHis (human, UniProt Q8IWV2 19-1000)
T1 sequence: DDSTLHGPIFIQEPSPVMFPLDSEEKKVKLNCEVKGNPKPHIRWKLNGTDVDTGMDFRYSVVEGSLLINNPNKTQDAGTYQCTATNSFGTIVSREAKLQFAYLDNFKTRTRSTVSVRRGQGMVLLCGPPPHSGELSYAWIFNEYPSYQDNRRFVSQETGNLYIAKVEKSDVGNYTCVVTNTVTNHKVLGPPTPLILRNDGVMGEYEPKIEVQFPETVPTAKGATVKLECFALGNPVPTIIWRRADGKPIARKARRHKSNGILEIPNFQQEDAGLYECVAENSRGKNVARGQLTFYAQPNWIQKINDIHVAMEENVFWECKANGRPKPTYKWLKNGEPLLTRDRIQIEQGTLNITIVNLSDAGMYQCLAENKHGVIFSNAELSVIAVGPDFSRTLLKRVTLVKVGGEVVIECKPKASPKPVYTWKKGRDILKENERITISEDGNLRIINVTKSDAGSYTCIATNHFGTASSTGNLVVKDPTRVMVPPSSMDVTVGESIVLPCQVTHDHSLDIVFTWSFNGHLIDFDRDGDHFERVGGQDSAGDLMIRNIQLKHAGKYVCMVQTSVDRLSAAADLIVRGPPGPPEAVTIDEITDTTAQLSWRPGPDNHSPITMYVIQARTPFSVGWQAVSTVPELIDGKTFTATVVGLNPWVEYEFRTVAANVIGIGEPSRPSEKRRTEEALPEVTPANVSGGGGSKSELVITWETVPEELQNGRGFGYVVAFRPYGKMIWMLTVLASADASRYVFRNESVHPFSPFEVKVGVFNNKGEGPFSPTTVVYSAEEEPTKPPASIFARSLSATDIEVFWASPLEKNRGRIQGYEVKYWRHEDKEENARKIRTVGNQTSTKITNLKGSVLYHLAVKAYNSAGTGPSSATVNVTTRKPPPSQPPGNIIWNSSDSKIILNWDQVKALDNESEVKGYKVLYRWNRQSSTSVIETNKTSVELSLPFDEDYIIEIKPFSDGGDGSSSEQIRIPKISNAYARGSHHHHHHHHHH
Method: (§1) An ELISA test was performed on A-01 prepared in Example 2.1. An ELISA plate was coated with 200 ng of antigens (human CNTN4-10xHis or mouse CNTN4-10xHis). For antibody binding, A-01 was serially diluted from a maximum of 1 μM to 0.0001 nM, thereby binding to the antigen. Anti-human Fc-HRP was used as a secondary antibody for antibody detection. Color was developed using ABTS, which is a color developing reagent, and the absorbance at 405 nm was measured.

mouse CNTN4-10xHis [2] = target: T2, mouse CNTN4-10xHis (mouse, UniProt Q69Z26 19-1000)
T2 sequence: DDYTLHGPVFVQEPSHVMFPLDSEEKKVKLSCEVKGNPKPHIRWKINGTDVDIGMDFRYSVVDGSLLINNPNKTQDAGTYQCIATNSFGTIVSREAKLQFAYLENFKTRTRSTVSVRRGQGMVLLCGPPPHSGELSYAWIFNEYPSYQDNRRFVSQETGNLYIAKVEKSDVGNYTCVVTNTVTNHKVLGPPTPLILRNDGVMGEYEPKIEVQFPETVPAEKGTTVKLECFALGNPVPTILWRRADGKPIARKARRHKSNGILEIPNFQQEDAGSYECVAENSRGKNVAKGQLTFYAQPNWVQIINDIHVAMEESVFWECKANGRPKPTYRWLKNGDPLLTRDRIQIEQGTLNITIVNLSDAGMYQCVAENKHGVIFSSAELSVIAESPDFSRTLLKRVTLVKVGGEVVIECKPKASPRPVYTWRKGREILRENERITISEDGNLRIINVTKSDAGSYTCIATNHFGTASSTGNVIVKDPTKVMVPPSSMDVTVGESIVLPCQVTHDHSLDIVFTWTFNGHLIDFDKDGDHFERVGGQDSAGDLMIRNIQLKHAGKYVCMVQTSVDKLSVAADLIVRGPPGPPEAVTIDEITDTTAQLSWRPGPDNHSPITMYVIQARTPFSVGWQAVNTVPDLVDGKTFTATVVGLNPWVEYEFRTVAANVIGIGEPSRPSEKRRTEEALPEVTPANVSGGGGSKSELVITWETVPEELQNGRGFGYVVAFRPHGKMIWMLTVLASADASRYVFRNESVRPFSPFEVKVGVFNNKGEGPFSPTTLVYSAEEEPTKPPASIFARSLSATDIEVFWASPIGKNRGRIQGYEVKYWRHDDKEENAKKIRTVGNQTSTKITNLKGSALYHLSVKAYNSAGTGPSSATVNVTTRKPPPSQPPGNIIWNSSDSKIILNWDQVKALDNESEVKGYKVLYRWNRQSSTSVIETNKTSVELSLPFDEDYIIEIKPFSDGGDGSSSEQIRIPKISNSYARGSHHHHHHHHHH
Method: as §1

human CNTN4-10xHis [3] = target: T1, human CNTN4-10xHis; remark: listed apart in the source
Method: as §1, with “The LAH2, L1H2, and L2H2 antibodies” for “An ELISA test was performed on A-01”, “3.1 were subjected to an ELISA test together with A-01.” for “2.1.”, “antibodies were” for “A-01 was”

mouse CNTN4-10xHis [4] = target: T2, mouse CNTN4-10xHis; remark: listed apart in the source
Method: as §1, with “The LAH2, L1H2, and L2H2 antibodies” for “An ELISA test was performed on A-01”, “3.1 were subjected to an ELISA test together with A-01.” for “2.1.”, “antibodies were” for “A-01 was”

Measured: EC50

B1: anti-CNTN4 129 chimeric IgG4-S228P (antibody, V domains shown)
VH: AVTLDESEGGLQTPGGALSLVCKASGFTFSSFNMFWVRQAPGKGLEYVAEISGGGGSTWYAPAVKGRATISRDNGQSTVRLQLNNLRAEDTGTYYCAKSADTWSYGAATIDAWGHGTEVIVSS
VL: ALTQPSSVSANLGETVKITCSGSSGSYGWYQQKSPGSAPVTLIYDNTNRPSDIPSRFSGSGSGSTGTLTITGVRAEDEAVYYCGGYDGSTDVFGAGTTLTVL
notes: chicken-human chimeric IgG4-S228P made from S129, kappa light chain constant region (Kappa select); also called A-01; LAHA
0.011 nM: all assays above

Source: patent US20240182563A1 (GENOME, published 2024)
